Data on 2 molecules can be found in patent US20040005550A1 (Scripps Research, published 2004).

In test [1] the target is T1, human αvβ3 integrin on cells (human, UniProt P06756 31-1048; P05106 27-788).
T1 construct: whole, on cells; also called vitronectin receptor; αvβ3-CHO cells
Briefly: flow cytometry binding isotherm, αvβ3-CHO cells, no treatment. On the technique in general: Flow cytometry measures light scatter and fluorescence of single cells or particles in a stream.
Description: (§1) Typically, cells were cultured overnight in low serum medium (e.g., 0.5% fetal bovine serum), resuspended in incubation buffer at 1-1.5×10⁷ cells/ml, and 4-6×10⁵ cells were incubated with one of these ligands for 30 min at room temperature in a final volume of 50 μl. […] After 30 min at room temperature, cells were washed and incubated with phycoerythrin-streptavidin (1:25 final dilution; Molecular Probes) for 20 min on ice. […] Cells were washed and resuspended in 0.5 ml incubation buffer containing 2 μg/ml propidium iodide (Sigma, St. Louis, Mo.). Ligand binding (FL1 channel) was analyzed immediately on the gated subset of live cells (propidium iodide-negative, FL3) that was strongly positive for αᵥβ₃ expression (FL2). Binding isotherms were subjected to non-linear, least squares regression analysis using an equation for one-site binding (Prism 2.0 software; GraphPad Software, San Diego, Calif.). Two-tailed P values for paired samples were obtained by Student's t test.

Test [2] concerns the target T1, human αvβ3 integrin on cells. Briefly: flow cytometry binding isotherm, αvβ3-CHO cells, activating antibody AP5.
Description: as §1
Test [3] shares this target. The experiment in a line: flow cytometry, equilibrium binding, unstimulated αvβ3-CHO cells; reference aPB.
Test [4] shares this target. Briefly: cell-based or functional assay.
Test [5] has as its target T2, αIIbβ3 on human platelets (human, UniProt P08514 32-1039; P05106 27-788).
T2 construct: whole, on cells; also called platelet αIIbβ3
Briefly: flow cytometry on human platelets.

Test [6] deals with T1, human αvβ3 integrin on cells. Briefly: flow cytometry, JY cells, 100 nM phorbol myristate acetate for 15 min.

T1 sequence (P06756 31-1048, chain 1 of 2): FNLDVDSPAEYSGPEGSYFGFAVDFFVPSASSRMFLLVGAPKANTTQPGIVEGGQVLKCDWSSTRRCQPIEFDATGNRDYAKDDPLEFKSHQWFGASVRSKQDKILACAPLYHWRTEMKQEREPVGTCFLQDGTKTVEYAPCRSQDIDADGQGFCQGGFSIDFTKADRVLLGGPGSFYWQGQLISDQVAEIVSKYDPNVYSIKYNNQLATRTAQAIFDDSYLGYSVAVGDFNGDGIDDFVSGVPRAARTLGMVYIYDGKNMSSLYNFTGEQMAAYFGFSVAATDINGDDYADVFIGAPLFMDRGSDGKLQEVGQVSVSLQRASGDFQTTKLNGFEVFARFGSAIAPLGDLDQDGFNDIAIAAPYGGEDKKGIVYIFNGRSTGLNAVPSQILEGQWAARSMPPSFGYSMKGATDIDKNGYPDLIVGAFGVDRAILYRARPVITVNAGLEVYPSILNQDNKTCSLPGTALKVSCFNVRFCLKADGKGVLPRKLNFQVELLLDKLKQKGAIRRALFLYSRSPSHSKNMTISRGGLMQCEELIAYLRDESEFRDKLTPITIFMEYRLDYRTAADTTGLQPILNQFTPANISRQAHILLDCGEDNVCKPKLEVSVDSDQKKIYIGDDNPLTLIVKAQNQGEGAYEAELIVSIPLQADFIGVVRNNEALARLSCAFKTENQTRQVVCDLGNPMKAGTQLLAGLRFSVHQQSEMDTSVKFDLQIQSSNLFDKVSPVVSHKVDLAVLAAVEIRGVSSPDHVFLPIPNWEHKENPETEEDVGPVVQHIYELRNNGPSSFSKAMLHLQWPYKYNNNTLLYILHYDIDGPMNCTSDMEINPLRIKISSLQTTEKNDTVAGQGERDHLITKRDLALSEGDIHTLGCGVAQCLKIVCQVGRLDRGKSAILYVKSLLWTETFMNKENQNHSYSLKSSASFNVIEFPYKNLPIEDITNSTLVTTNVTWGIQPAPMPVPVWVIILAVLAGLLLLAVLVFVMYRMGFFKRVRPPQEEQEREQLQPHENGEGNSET
T1 sequence (P05106 27-788, chain 2 of 2): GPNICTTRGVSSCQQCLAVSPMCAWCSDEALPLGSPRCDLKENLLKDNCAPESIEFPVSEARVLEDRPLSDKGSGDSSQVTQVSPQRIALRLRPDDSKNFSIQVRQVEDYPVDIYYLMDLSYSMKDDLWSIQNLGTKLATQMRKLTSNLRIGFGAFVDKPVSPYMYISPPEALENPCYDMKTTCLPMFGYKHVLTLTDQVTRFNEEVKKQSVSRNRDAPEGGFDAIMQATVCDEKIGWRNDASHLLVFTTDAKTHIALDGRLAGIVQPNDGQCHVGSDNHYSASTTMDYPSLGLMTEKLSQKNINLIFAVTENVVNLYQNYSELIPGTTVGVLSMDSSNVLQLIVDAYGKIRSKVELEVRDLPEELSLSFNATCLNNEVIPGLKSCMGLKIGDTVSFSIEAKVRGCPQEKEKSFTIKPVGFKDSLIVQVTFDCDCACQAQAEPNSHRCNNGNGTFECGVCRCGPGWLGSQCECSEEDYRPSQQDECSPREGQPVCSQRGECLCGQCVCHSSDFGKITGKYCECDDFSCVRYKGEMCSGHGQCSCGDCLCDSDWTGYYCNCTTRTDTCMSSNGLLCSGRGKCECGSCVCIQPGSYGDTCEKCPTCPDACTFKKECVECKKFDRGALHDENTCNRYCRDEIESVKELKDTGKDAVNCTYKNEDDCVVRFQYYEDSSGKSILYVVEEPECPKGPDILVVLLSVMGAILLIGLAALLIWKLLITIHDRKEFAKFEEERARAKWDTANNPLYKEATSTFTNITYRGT
T2 sequence (P08514 32-1039, chain 1 of 2): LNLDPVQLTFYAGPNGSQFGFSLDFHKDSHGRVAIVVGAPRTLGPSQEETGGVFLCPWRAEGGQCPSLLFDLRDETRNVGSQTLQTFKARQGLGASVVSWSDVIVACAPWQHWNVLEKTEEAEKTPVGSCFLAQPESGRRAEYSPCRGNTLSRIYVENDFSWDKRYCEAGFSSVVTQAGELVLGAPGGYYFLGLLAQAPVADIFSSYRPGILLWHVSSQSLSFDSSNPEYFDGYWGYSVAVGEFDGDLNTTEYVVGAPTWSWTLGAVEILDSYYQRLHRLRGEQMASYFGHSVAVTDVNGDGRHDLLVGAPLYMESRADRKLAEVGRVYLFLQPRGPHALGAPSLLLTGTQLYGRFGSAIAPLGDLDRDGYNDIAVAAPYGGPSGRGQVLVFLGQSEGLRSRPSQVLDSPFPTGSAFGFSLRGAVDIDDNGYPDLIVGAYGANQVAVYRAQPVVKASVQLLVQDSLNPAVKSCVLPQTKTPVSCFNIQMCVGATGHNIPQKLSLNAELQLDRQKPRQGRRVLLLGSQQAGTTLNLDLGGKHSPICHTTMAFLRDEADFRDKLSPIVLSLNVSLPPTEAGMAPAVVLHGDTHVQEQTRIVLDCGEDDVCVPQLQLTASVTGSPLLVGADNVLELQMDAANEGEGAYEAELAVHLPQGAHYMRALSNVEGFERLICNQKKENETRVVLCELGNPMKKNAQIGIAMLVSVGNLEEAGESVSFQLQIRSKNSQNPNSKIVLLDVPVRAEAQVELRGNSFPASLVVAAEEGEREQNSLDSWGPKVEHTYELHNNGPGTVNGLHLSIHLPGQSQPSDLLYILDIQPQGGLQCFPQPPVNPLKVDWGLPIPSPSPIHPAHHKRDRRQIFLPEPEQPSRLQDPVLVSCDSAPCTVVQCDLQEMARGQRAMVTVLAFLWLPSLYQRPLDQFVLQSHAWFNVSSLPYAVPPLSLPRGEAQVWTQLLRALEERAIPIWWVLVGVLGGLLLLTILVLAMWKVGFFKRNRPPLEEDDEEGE
T2 sequence (P05106 27-788, chain 2 of 2): as the sequence (P05106 27-788, chain 2 of 2) above

B1: Purified human fibrinogen (ligand)
chain 1: ADSGEGDFLAEGGGVRGPRVVERHQSACKDSDWPFCSDEDWNYKCPSGCRMKGLIDEVNQDFTNRINKLKNSLFEYQKNNKDSHSLTTNIMEILRGDFSSANNRDNTYNRVSEDLRSRIEVLKRKVIEKVQHIQLLQKNVRAQLVDMKRLEVDIDIKIRSCRGSCSRALAREVDLKDYEDQQKQLEQVIAKDLLPSRDRQHLPLIKMKPVPDLVPGNFKSQLQKVPPEWKALTDMPQMRMELERPGGNEITRGGSTSYGTGSETESPRNPSSAGSWNSGSSGPGSTGNRNPGSSGTGGTATWKPGSSGPGSTGSWNSGSSGTGSTGNQNPGSPRPGSTGTWNPGSSERGSAGHWTSESSVSGSTGQWHSESGSFRPDSPGSGNARPNNPDWGTFEEVSGNVSPGTRREYHTEKLVTSKGDKELRTGKEKVTSGSTTTTRRSCSKTVTKTVIGPDGHKEVTKEVVTSEDGSDCPEAMDLGTLSGIGTLDGFRHRHPDEAAFFDTASTGKTFPGFFSPMLGEFVSETESRGSESGIFTNTKESSSHHPGIAEFPSRGKSSSYSKQFTSSTSYNRGDSTFESKSYKMADEAGSEADHEGTHSTKRGHAKSRPV
chain 2: QGVNDNEEGFFSARGHRPLDKKREEAPSLRPAPPPISGGGYRARPAKAAATQKKVERKAPDAGGCLHADPDLGVLCPTGCQLQEALLQQERPIRNSVDELNNNVEAVSQTSSSSFQYMYLLKDLWQKRQKQVKDNENVVNEYSSELEKHQLYIDETVNSNIPTNLRVLRSILENLRSKIQKLESDVSAQMEYCRTPCTVSCNIPVVSGKECEEIIRKGGETSEMYLIQPDSSVKPYRVYCDMNTENGGWTVIQNRQDGSVDFGRKWDPYKQGFGNVATNTDGKNYCGLPGEYWLGNDKISQLTRMGPTELLIEMEDWKGDKVKAHYGGFTVQNEANKYQISVNKYRGTAGNALMDGASQLMGENRTMTIHNGMFFSTYDRDNDGWLTSDPRKQCSKEDGGGWWYNRCHAANPNGRYYWGGQYTWDMAKHGTDDGVVWMNWKGSWYSMRKMSMKIRPFFPQQ
chain 3: YVATRDNCCILDERFGSYCPTTCGIADFLSTYQTKVDKDLQSLEDILHQVENKTSEVKQLIKAIQLTYNPDESSKPNMIDAATLKSRKMLEEIMKYEASILTHDSSIRYLQEIYNSNNQKIVNLKEKVAQLEAQCQEPCKDTVQIHDITGKDCQDIANKGAKQSGLYFIKPLKANQQFLVYCEIDGSGNGWTVFQKRLDGSVDFKKNWIQYKEGFGHLSPTGTTEFWLGNEKIHLISTQSAIPYALRVELEDWNGRTSTADYAMFKVGPEADKYRLTYAYFAGGDAGDAFDGFDFGDDPSDKFFTSHNGMQFSTWDNDNDKFEGNCAEQDGSGWWMNKCHAGHLNGVYYQGGTYSKASTPNGYDNGIIWATWKTRWYSMKKTTMKIIPFNRLTIGEGQQHHLGGAKQAGDV
notes: also called FITC-fibrinogen
In general, Kd refers to the equilibrium constant for the complex coming apart. High values mean lower affinity, low ones higher affinity. Take B1: the dissociation constant Kd came to 9200 nM in test [1] and 566 nM in test [2]. Moreover, the “fold lower affinity/avidity than for aPB” value in test [3] is around 15 fold.

B2: Recombinant penton base from adenovirus type 2 (ligand)
chain: MQRAAMYEEGPPPSYESVVSAAPVAAALGSPFDAPLDPPFVPPRYLRPTGGRNSIRYSELAPLFDTTRVYLVDNKSTDVASLNYQNDHSNFLTTVIQNNDYSPGEASTQTINLDDRSHWGGDLKTILHTNMPNVNEFMFTNKFKARVMVSRSLTKDKQVELKYEWVEFTLPEGNYSETMTIDLMNNAIVEHYLKVGRQNGVLESDIGVKFDTRNFRLGFDPVTGLVMPGVYTNEAFHPDIILLPGCGVDFTHSRLSNLLGIRKRQPFQEGFRITYDDLEGGNIPALLDVDAYQASLKDDTEQGGDGAGGGNNSGSGAEENSNAAAAAMQPVEDMNDHAIRGDTFATRAEEKRAEAEAAAEAAAPAAQPEVEKPQKKPVIKPLTEDSKKRSYNLISNDSTFTQYRSWYLAYNYGDPQTGIRSWTLLCTPDVTCGSEQVYWSLPDMMQDPVTFRSTSQISNFPVVGAELLPVHSKSFYNDQAVYSQLIRQFTSLTHVFNRFPENQILARPPAPTITTVSENVPALTDHGTLPLRNSIGGVQRVTITDARRRTCPYVYKALGIVSPRVLSSRTF
notes: also called Alexa-penton base; aPB
As for B2, the “shift of the adhesion dose-response curve with AP5 against no additive” value in test [4] is 7 fold. Besides, the binding result in test [5] is recorded as “no binding”. Also, the Kd amounted to 550 nM in test [1] and 160 nM in test [2]. For the same molecule, the “fold increase in specific binding with phorbol myristate acetate against no agonist” value in test [6] worked out at 2.7 fold.
